In US20160258933A1 (Dana-Farber, published 2016):
Ends that are not written are not given here. * marks the point of attachment. FITC = O=C1OC2(c3ccc(O)cc3Oc3cc(O)ccc32)c2ccc(NC(=S)*)cc21; Ahx = NCCCCCC(=O)O

B1: BAD BH3 peptide (no tag stated) (peptide)
peptide: LWAAQRYGRELRRMSDEFEGSFKGL
notes: Peptide as titrated in the displacement assay and used on mitochondria and cells
B2: NOXA B BH3 peptide, N-terminal fluorescein tagged (peptide)
peptide: {FITC-Ahx}-PADLKDECAQLRRIGDKVNL
B3: NOXA A BH3 peptide, N-terminal fluorescein tagged (peptide)
peptide: {FITC-Ahx}-AELPPEFAAQLRKIGDKVYC
B4: NOXA A BH3 peptide (no tag stated) (peptide)
peptide: AELPPEFAAQLRKIGDKVYC
notes: as for B1
B5: BIK BH3 peptide, N-terminal fluorescein tagged (peptide)
peptide: {FITC-Ahx}-MEGSDALALRLACIGDEMDV

Key:
[1] = molecular target: T1, GST-MCL-1 (human, UniProt Q07820 1-327, limits assumed); test: fluorescence polarization displacement of fluorescein BIM BH3 from 0.1 uM GST-MCL-1
T1 construct: not shown: GST tag
Description: (§1) Binding assays were performed using fluorescence polarization as previously described (Letai et al., 2002). A minimum of three independent experiments were used to determine each dissociation constant.

[2] = molecular target: T2, GST-BCL-2 (human, UniProt P10415 1-218, limits assumed); test: fluorescence polarization, FITC peptide with GST-BCL-2
T2 construct: Bacterially expressed GST fusion; not shown: GST tag
Description: as §1
(§2) To determine selectivity in interactions among antiapoptotic BCL-2 family members and BH3 domains of BH3-only proteins, fluorescence polarization binding assays (FPA) were used. Antiapoptotic proteins BCL-2, BCL-XL, MCL-1, BCL-w, and BFL-1 were purified from transfected bacteria as GST fusion proteins. Oligopeptides used for FPA were tagged with an N-terminal FITC moiety.

[3] = molecular target: T3, GST-BCL-w (human, UniProt Q92843 1-164, limits assumed); test: fluorescence polarization, FITC peptide with GST-BCL-w
T3 construct: Bacterially expressed GST fusion; not shown: GST tag
T3 sequence (looked up): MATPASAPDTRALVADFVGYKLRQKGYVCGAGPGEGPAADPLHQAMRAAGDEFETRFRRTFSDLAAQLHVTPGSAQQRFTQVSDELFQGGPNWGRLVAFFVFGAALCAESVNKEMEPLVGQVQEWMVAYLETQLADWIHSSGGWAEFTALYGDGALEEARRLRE
Description: as §1, §2

[4] = molecular target: T4, GST-BFL-1 (human, UniProt Q16548 1-153, limits assumed); test: fluorescence polarization, FITC peptide with GST-BFL-1
T4 construct: Bacterially expressed GST fusion; not shown: GST tag
T4 sequence (looked up): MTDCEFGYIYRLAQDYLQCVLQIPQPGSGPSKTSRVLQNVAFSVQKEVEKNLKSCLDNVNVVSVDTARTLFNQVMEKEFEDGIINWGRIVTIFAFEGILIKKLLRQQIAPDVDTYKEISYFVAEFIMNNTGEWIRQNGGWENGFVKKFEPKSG
Description: as §1, §2

[5] = molecular target: T5, GST-BCL-XL (human, UniProt Q07817 1-212, limits assumed); test: fluorescence polarization, FITC peptide with GST-BCL-XL
T5 construct: Bacterially expressed GST fusion; not shown: GST tag
Description: as §1, §2

[6] = molecular target: T2, GST-BCL-2; test: fluorescence polarization displacement of fluorescein BIM BH3 from 0.5 uM GST-BCL-2
Description: as §1

[7] = molecular target: T2, GST-BCL-2; test: fluorescence polarization (Table 2b) as retold

T2 sequence (P10415 1-218 limits assumed): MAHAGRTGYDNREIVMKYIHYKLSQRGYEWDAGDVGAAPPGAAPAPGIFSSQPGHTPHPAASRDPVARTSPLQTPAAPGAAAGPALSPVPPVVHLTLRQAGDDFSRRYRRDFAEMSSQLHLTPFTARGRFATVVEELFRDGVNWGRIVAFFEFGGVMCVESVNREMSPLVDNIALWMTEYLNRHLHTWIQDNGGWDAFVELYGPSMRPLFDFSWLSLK
T5 sequence (Q07817 1-212 limits assumed): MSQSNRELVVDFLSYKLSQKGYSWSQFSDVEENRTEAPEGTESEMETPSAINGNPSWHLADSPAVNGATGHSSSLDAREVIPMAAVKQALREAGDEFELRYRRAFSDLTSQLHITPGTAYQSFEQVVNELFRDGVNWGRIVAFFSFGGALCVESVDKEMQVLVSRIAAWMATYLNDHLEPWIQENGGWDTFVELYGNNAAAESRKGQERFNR
T1 sequence (Q07820 1-327 limits assumed): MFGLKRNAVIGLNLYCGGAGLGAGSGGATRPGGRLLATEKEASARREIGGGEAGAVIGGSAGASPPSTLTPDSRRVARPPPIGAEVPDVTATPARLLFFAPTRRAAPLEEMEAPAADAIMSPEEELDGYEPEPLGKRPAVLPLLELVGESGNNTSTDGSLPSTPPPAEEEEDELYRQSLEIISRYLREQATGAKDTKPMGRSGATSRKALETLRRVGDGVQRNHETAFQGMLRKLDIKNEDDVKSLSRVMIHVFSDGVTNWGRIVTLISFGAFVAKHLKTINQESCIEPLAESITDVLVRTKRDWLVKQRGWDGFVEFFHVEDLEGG

Binder | binding result [2] | binding result [3] | binding result [4] | binding result [5] | also measured
B1 | – | – | – | – | binding result [1]: no binding
B2 | no binding | no binding | no binding | no binding | –
B3 | no binding | no binding | no binding | no binding | –
B4 | – | – | – | – | binding result [6]: no binding
B5 | – | – | – | – | fold lower affinity than BAD BH3 [7]: ~10 fold; fold lower affinity than BAD, PUMA or BMF BH3 [7]: ~10 fold
